Measured values reported in the nanobody polyreactivity screen of Harvey et al. (2022).

Assay: yeast display, Sf9 membrane polyspecificity reagent, FACS + sequencing; frameworks hold sequencing errors
In short: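 A nanobody's polyreactivity label depends on the gate it was sorted from. Yeast display cells were stained with 10% biotinylated, detergent-solubilized Sf9 membrane reagent for 1 hour at 4 °C, enriched on streptavidin microbeads and sorted by FACS. The low and high (top ~1%) gates were set on anti-HA fluorescence for expression and streptavidin fluorescence for reagent binding.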

Sequence | polyreactivity (PSR sort gate)
QVQLVESGGGLVQAGGSLRLNCAASGRIFKYNTRGWYRQAPGKERQLVAAISLSTGSGGGTRYADSVKGRFTISRDNAKNTVYLKMNSLNPEDTAVYYCAARHRYTNEYDYWGQGTQVTVSS | low polyreactivity
QVQLVESGGGLVQAGGSLRLSCASSGSTFRKNTMGWYIPAPGKEREFVAAISRSGGSTYYADSVKGRFTISRDNAKNTVYLQMNSLKPEDTAVYYCAASYYPHQYSYELGDYWGQGTQVTVSS | low polyreactivity
QVQLVESGRGLFQAGGSLRLSCAASGSTFSGYAMGWYRPAPGKERELVATITRRGGNTYYADSVKGRFTISRDNAKNTVYLQMNSLKPEDTAVYYCSKDGRVHSPYDYWGQGTQVTVSS | low polyreactivity
QVQLVESGGGLVQAGGSLRLSCAASGSIFKSYAMGLYRQAPGKEREFVASITKSGGTTYYADSVKGRFTISRDNAKNTVYLQMNSLKPEDTAVYYCAADWYRSSWTYNYWGQGTQVTVSS | low polyreactivity
QVQLVESGGGLVQAGGSLRLSCAASGRTFPGYAMGWYRQAPGKERELVATITLSDGSTYYADSVKGRFTISRDNAKTTVYLQMNSLKPEDTAVYYCNARRSYFLRYGVNYWGQGTQVTVSS | low polyreactivity
QVQLVDSGAGLVQAGGSLRLSCPASGRIFAVNAMGWYRKAPGKERELVAAINGGGSTNYADSVKGRFTISRDNAKNTVYLQMNSLKPQDTAVYYCAADVGWRSQTRGYYWGQGTQVTVSS | high polyreactivity
QVQLQESGGGLVHAAGILRLSCAACGNIFPSAVMGWYRQALGKEREFVATLNSGSNTYYADSVKGRFTIRRDNAKNTVYLQMNSLKLEDTGVYYCAAYFNLPAWHTYWGQGTQVTVSS | low polyreactivity
QVQLVESGGGLVQAGGSLRLSCAASGFIFDGYTMGRYRQAPGKERELVAAISRSGGRTYYADSVKGRFRISRDNAKNTVYLQMNSLKPEDTAVYYCAVRYRLYSQTVASDYGYWGQGTQVTVSS | high polyreactivity
QVQLVESGGGLVQAGGSLRLSCASSGSTFLINAMGWYRQAPGKERELVAAISRDGSTNYADSVKGRFTISRDNAKNTVYLQMHSLIPEDTAVYSCAAVPGISVGRQPGYDYDYWGQGTQVTVSS | low polyreactivity
QVQLVESGGGLVQAGGSLRLSCAASGSIFEVYAMGWYRQAPGKEREFVATISGSGGSTYYADSVKGRFTISRDNAKNTVYLQMNSLKPEDTAVYYCAASIAWYSSFVITYYYWGQGTQVTVSS | low polyreactivity
QVQLVESGGGLVQAGGSLRLSCAASGFIFIKYAMGWYRQAPGKERELVAAISSSGGSTYYADSVKGRFTISRDNAKNTVYLQMNSLKPEDTAVYYCAARTYRGLAYDYWGQGTQVTVSS | high polyreactivity
QVQLVESGGGLVQAGGSLRLSCAASGYTFESYTMGWYRQGPGKERDFVAVISSSDTSTSYADSVKGRFTISRDNAKNTVYLQINSLKAEDTAVYYCAAYSSPYYITYYWYNYDYWGQVTQVTVSS | low polyreactivity
QVQLVESGGGLVQAGGSLRLSCAASGINFGKYAMGWYRQAPGKERELVAAITSGDSTYYADSVKGRFTISRDNAKNTVYLQMNSLKPEDTAVYYCNADAWRSQSWWHGLMEYWGQGTQVTVSS | low polyreactivity
QVQLVESGGGLVQAGGSLRLSCAASGFTFEVYAMGRYRQAPGKERELVAAITSSGGRTYYADSVKGRFTISRDYAKNTVYLQMNSLKPEDTAGYYCAAYVSYEYGYWGQGSQVTVSS | high polyreactivity
QVQLVESGGGLVQAGGSLRLSCAASGSTFQWYAIGWYRQAPGKERELVATISYTGGSRTYYADSVKGRFTISRDNAKNTVYLQMNILKPEDTAVYYCAAESNQLFYFRRFDYWGQGTQVTVSS | low polyreactivity
QVQLVESGGGLVQAGGSLRLSCAASGRTIDYNGRGSYRQAPGKERELVAVISSSGGSPFYADSVKGRFTISRDNAKNTVYLQMNSLKPEDTAVYYCAADFIVAYTLHGSYDYWGQGTQVTVSS | low polyreactivity

Sequence | polyreactivity (PSR sort gate)
QVQLVESGGGLVQAGGSLRLSCAASGRIFYYYAMGWYRQAPGKERELVAVISRGGRTKYADSVKGRFTISRDNAKNTVYLQMNSLKPEDTAVYYCAVGLSGASSGMGYWGQGTQVTVSS | high polyreactivity
QVQLVESGGGLVQAGGSLRLSCAASGFTFQEYAMGWYRQAPGKERELVAVISSSGVRTYYADSVKGRFTISRDNAKNTVYLQMNSLKPEDTAVYYCAARRYHYIPSTKGNYWGQGTQVTVSS | high polyreactivity
QVQLVESAGGLVQAGGSLRLSCAASGLTFTGNAIGWYRQAPGKERQCVAAIRWSAGSTYYADSVKGRVTISRDNAKNTVYLQMNSLKPEDTAVYYCNAALNVSGHYPNDYWGQGTQVTVSS | low polyreactivity
QVQLVESGGGLVQAGGSLRLSCAASGSTFQSYAMGWYRQAPGKERELVAGITSGDSTNYADSVKGRFTISRDNAKNTVYLQMNSLKPEDTAVYYCNAVTQARYYYWGQGTQVTVSS | low polyreactivity
QVQIVESGGGLVQAGGSLRLSCAASGRIFRVNWIGWYRQAPGKESELVAAIRRSGGSTYYADSVKGRFTISRDNAKNTVYLQMNSLKPEDTAVYFCAAPVRQSSYTRYDSWGQGTQVTVSS | high polyreactivity
QVQLVESGGGLVQAGGSLRLSCAASGFIFDAYAMGWYRQAPGKERELVAAISSRGGSTYYADSVKGRFTISRDNAKNTVYLQMNSLKPEDTAVYYCAAPWYQGLDYWGQGTQVTVSS | high polyreactivity
QVQLVESGGGLVKAGGSLRLSCAASGSTFRYYAMGWYRQAPGKERELVAGITTGGGRTYYADSVKGRFTISRDNAKNTVYLQMNSLKPEDTAVYYCAADRYSHYWYRISYDYWGQGTQVTVSS | high polyreactivity
QVQLVESGGGLVQAGGSLRLSCAASGFIFDYYAMGWYRQAPGKERELVAVINQSGTSTYYADSVKGRFTISRDNAKNTVYLQMNSLKPEDTAVYYCSVDYGTPVYWDEMYYWGQGTQVTVSS | low polyreactivity
QVQLVESGGGLVQAGGSLRLSCAASGSTFGYYGMGWYRQAPGKERELVAAISTGGRTNYADSVKGRFTISRDNAKNTVYLQMNSLKPEDTAVYYCAADFLSPAYRPSWYRFDYWGQGTQVTVSS | low polyreactivity
QVQLVESGGGLVQAGGSLRLSCAASGRIFRHKAMGWYRQAPGKETELVAAITSRGGTYYADSVKGRFTISRDNAKNTVYLQMNSLKPEDTAFYFCNADQALYSSGNKYDYWGQGTQVTVSS | low polyreactivity
QVQLVESGGGLVQAVGSLRLSCAASGLTFYSNAMGWYRQAPGTERELVATISQDGGRTYADSVKGLFTISRDNAKNTVYFQMNSLKPEDTAVYYCAADYSGNYDFGYWGQGNQVTVSS | low polyreactivity
QVQLVESGGGVVQAGGSLRLSCAASGSIFRRNAMGWYRQAPGKERELVAAISWTTGSTYYADSVKGRFTISRDNAKNTVYLLMNSLKAEDTSVYYCAAVIRSRYSYYEYDFWGQGTKVTVSS | high polyreactivity
QVQLVESGGGLVQAGGSLRLSCAASGHIFFYYTMGWYRQAPGKERELVAGITIGGSTNYADSVKGRFTISRDNAKNTVYLEMNSLKPEDTAVYYCNVVKYVFFYSYWEYYYWGQGTQVTVSS | low polyreactivity
QVQLVESGGGLVQAGGSLRLSCAASGSIFDYNVMGWSRQAPGKERELVAAITYNDGSTYYGDSVKGRFTISRDYAKNTVYLQMNSLKPEDTAVYYCNAEQTPSGLYDYRGVEGEMGYWGQGTQVTVSS | low polyreactivity
QVQLVESGGGLVQAGGSLRLSSAASGSIFIPYAMGWYRQAPGKERELVAAISSSGSTYYADSVKGRFTISRDNAKNTVYFQMNSLKPEDTAVYYCAAAWHTAYWDGSDTLGGGYWGQGTQVTVSS | low polyreactivity
